We go through six molecules from patent US20260034194A1, “PHARMACEUTICAL COMPOSITIONS AND METHODS OF TREATING PSP” (priority 2022, published 2026).

The assay is classed as binding. The note with it: for Kd: FP, 1 nM F-STX, 25° C., errors S.D.; for ΔΔG: ΔΔG = RT ln(Kd mutant or XSxph/Kd RcSxph), T = 298K, FP with F-STX.

B1: E540Q: RcSxph STX binding pocket mutant E540Q (protein)
chain: MAPTFQTALFFTIISLSFAAPNAKQVRWCAISDLEQKKCNDLVGSCNVPDITLVCVLRSSTEDCMTAIKDGQADAMFLDSGEVYEASKDPYNLKPIIAEPYSSNRDLQKCLKERQQALAKKMIGHYIPQCDEKGNYQPQQCHGSTGHCWCVNAMGEKISGTNTPPGQTRATCERHELPKCLKERQVALGGDEKVLGRFVPQCDEKGNYEPQQFHGSTGYSWCVNAIGEEIAGTKTPPGKIPATCQKHDLVTTCHYAVAMVKKSSAFQFNQLKGKRSCHSGVSKTDGWKALVTVLVEKKLLSWDGPAKESIQRAMSKFFSVSCIPGATQTNLCKQCKGEEGKNCKNSHDEPYYGNYGAFRCLKEDMGDVAFLRSTALSDEHSEVYELLCPDNTRKPLNKYKECNLGTVPAGTVVTRKISDKTEDINNFLMEAQKRQCKLFSSAHGKDLMFDDSTLQLALLSSEVDAFLYLGVKLFHAMKALTGDAHLPSKNKVRWCTINKLEKMKCDDWSAVSGGAIACTEASCPKGCVKQILKGEADAVKLEVQYMYEALMCGLLPAVQEYHNKDDFGPCKTPGSPYTDFGTLRAVALVKKSNKDINWNNIKGKKSCHTGVGDIAGWVIPVSLIRRQNDNSDIDSFFGESCAPGSDTKSNLCKLCIGDPKNSAANTKCSLSDKEAYYGNQGAFRCLVEKGDVAFVPHTVVFENTDGKNPAVWAKNLKSEDFELLCLDGSRAPVSNYKSCKLSGIPPPAIVTREESISDVVRIVANQQSLYGRKGFEKDMFQLFSSNKGNNLLFNDNTQCLITFDRQPKDIMEDYFGKPYYTTVYGASRSAMSSELISACTIKHC
As for B1, binding was put at a Kd of 10600 ± 1320 nM and the “ΔΔG” value is 4.30 kcal/mol.

B2: F784S: RcSxph STX binding pocket mutant F784S (protein)
chain: MAPTFQTALFFTIISLSFAAPNAKQVRWCAISDLEQKKCNDLVGSCNVPDITLVCVLRSSTEDCMTAIKDGQADAMFLDSGEVYEASKDPYNLKPIIAEPYSSNRDLQKCLKERQQALAKKMIGHYIPQCDEKGNYQPQQCHGSTGHCWCVNAMGEKISGTNTPPGQTRATCERHELPKCLKERQVALGGDEKVLGRFVPQCDEKGNYEPQQFHGSTGYSWCVNAIGEEIAGTKTPPGKIPATCQKHDLVTTCHYAVAMVKKSSAFQFNQLKGKRSCHSGVSKTDGWKALVTVLVEKKLLSWDGPAKESIQRAMSKFFSVSCIPGATQTNLCKQCKGEEGKNCKNSHDEPYYGNYGAFRCLKEDMGDVAFLRSTALSDEHSEVYELLCPDNTRKPLNKYKECNLGTVPAGTVVTRKISDKTEDINNFLMEAQKRQCKLFSSAHGKDLMFDDSTLQLALLSSEVDAFLYLGVKLFHAMKALTGDAHLPSKNKVRWCTINKLEKMKCDDWSAVSGGAIACTEASCPKGCVKQILKGEADAVKLEVQYMYEALMCGLLPAVEEYHNKDDFGPCKTPGSPYTDFGTLRAVALVKKSNKDINWNNIKGKKSCHTGVGDIAGWVIPVSLIRRQNDNSDIDSFFGESCAPGSDTKSNLCKLCIGDPKNSAANTKCSLSDKEAYYGNQGAFRCLVEKGDVAFVPHTVVFENTDGKNPAVWAKNLKSEDFELLCLDGSRAPVSNYKSCKLSGIPPPAIVTREESISDVVRIVANQQSLYGRKGFEKDMFQLFSSNKGNNLLFNDNTQCLITSDRQPKDIMEDYFGKPYYTTVYGASRSAMSSELISACTIKHC
Take B2: the Kd (usually the constant that tells how readily two partners part at equilibrium) amounted to 3240 ± 508 nM and the “ΔΔG” value was 3.60 kcal/mol.

B3: F784Y: RcSxph STX binding pocket mutant F784Y (protein)
chain: MAPTFQTALFFTIISLSFAAPNAKQVRWCAISDLEQKKCNDLVGSCNVPDITLVCVLRSSTEDCMTAIKDGQADAMFLDSGEVYEASKDPYNLKPIIAEPYSSNRDLQKCLKERQQALAKKMIGHYIPQCDEKGNYQPQQCHGSTGHCWCVNAMGEKISGTNTPPGQTRATCERHELPKCLKERQVALGGDEKVLGRFVPQCDEKGNYEPQQFHGSTGYSWCVNAIGEEIAGTKTPPGKIPATCQKHDLVTTCHYAVAMVKKSSAFQFNQLKGKRSCHSGVSKTDGWKALVTVLVEKKLLSWDGPAKESIQRAMSKFFSVSCIPGATQTNLCKQCKGEEGKNCKNSHDEPYYGNYGAFRCLKEDMGDVAFLRSTALSDEHSEVYELLCPDNTRKPLNKYKECNLGTVPAGTVVTRKISDKTEDINNFLMEAQKRQCKLFSSAHGKDLMFDDSTLQLALLSSEVDAFLYLGVKLFHAMKALTGDAHLPSKNKVRWCTINKLEKMKCDDWSAVSGGAIACTEASCPKGCVKQILKGEADAVKLEVQYMYEALMCGLLPAVEEYHNKDDFGPCKTPGSPYTDFGTLRAVALVKKSNKDINWNNIKGKKSCHTGVGDIAGWVIPVSLIRRQNDNSDIDSFFGESCAPGSDTKSNLCKLCIGDPKNSAANTKCSLSDKEAYYGNQGAFRCLVEKGDVAFVPHTVVFENTDGKNPAVWAKNLKSEDFELLCLDGSRAPVSNYKSCKLSGIPPPAIVTREESISDVVRIVANQQSLYGRKGFEKDMFQLFSSNKGNNLLFNDNTQCLITYDRQPKDIMEDYFGKPYYTTVYGASRSAMSSELISACTIKHC
With B3, the Kd turned out to be 13.8 ± 1 nM and the “ΔΔG” value came to 0.37 kcal/mol.

B4: F784L: RcSxph STX binding pocket mutant F784L (protein)
chain: MAPTFQTALFFTIISLSFAAPNAKQVRWCAISDLEQKKCNDLVGSCNVPDITLVCVLRSSTEDCMTAIKDGQADAMFLDSGEVYEASKDPYNLKPIIAEPYSSNRDLQKCLKERQQALAKKMIGHYIPQCDEKGNYQPQQCHGSTGHCWCVNAMGEKISGTNTPPGQTRATCERHELPKCLKERQVALGGDEKVLGRFVPQCDEKGNYEPQQFHGSTGYSWCVNAIGEEIAGTKTPPGKIPATCQKHDLVTTCHYAVAMVKKSSAFQFNQLKGKRSCHSGVSKTDGWKALVTVLVEKKLLSWDGPAKESIQRAMSKFFSVSCIPGATQTNLCKQCKGEEGKNCKNSHDEPYYGNYGAFRCLKEDMGDVAFLRSTALSDEHSEVYELLCPDNTRKPLNKYKECNLGTVPAGTVVTRKISDKTEDINNFLMEAQKRQCKLFSSAHGKDLMFDDSTLQLALLSSEVDAFLYLGVKLFHAMKALTGDAHLPSKNKVRWCTINKLEKMKCDDWSAVSGGAIACTEASCPKGCVKQILKGEADAVKLEVQYMYEALMCGLLPAVEEYHNKDDFGPCKTPGSPYTDFGTLRAVALVKKSNKDINWNNIKGKKSCHTGVGDIAGWVIPVSLIRRQNDNSDIDSFFGESCAPGSDTKSNLCKLCIGDPKNSAANTKCSLSDKEAYYGNQGAFRCLVEKGDVAFVPHTVVFENTDGKNPAVWAKNLKSEDFELLCLDGSRAPVSNYKSCKLSGIPPPAIVTREESISDVVRIVANQQSLYGRKGFEKDMFQLFSSNKGNNLLFNDNTQCLITLDRQPKDIMEDYFGKPYYTTVYGASRSAMSSELISACTIKHC
Regarding B4, binding was put at a Kd of 48 ± 6.8 nM and the “ΔΔG” value is 1.11 kcal/mol.

B5: D794N: RcSxph STX binding pocket mutant D794N (protein)
chain: MAPTFQTALFFTIISLSFAAPNAKQVRWCAISDLEQKKCNDLVGSCNVPDITLVCVLRSSTEDCMTAIKDGQADAMFLDSGEVYEASKDPYNLKPIIAEPYSSNRDLQKCLKERQQALAKKMIGHYIPQCDEKGNYQPQQCHGSTGHCWCVNAMGEKISGTNTPPGQTRATCERHELPKCLKERQVALGGDEKVLGRFVPQCDEKGNYEPQQFHGSTGYSWCVNAIGEEIAGTKTPPGKIPATCQKHDLVTTCHYAVAMVKKSSAFQFNQLKGKRSCHSGVSKTDGWKALVTVLVEKKLLSWDGPAKESIQRAMSKFFSVSCIPGATQTNLCKQCKGEEGKNCKNSHDEPYYGNYGAFRCLKEDMGDVAFLRSTALSDEHSEVYELLCPDNTRKPLNKYKECNLGTVPAGTVVTRKISDKTEDINNFLMEAQKRQCKLFSSAHGKDLMFDDSTLQLALLSSEVDAFLYLGVKLFHAMKALTGDAHLPSKNKVRWCTINKLEKMKCDDWSAVSGGAIACTEASCPKGCVKQILKGEADAVKLEVQYMYEALMCGLLPAVEEYHNKDDFGPCKTPGSPYTDFGTLRAVALVKKSNKDINWNNIKGKKSCHTGVGDIAGWVIPVSLIRRQNDNSDIDSFFGESCAPGSDTKSNLCKLCIGDPKNSAANTKCSLSDKEAYYGNQGAFRCLVEKGDVAFVPHTVVFENTDGKNPAVWAKNLKSEDFELLCLDGSRAPVSNYKSCKLSGIPPPAIVTREESISDVVRIVANQQSLYGRKGFEKDMFQLFSSNKGNNLLFNDNTQCLITFDRQPKDIMENYFGKPYYTTVYGASRSAMSSELISACTIKHC
For the molecule B5, binding was characterised by a dissociation constant (Kd) of 3230 ± 397 nM and the “ΔΔG” value was found to be 3.60 kcal/mol.

B6: F784C: RcSxph STX binding pocket mutant F784C (protein)
chain: MAPTFQTALFFTIISLSFAAPNAKQVRWCAISDLEQKKCNDLVGSCNVPDITLVCVLRSSTEDCMTAIKDGQADAMFLDSGEVYEASKDPYNLKPIIAEPYSSNRDLQKCLKERQQALAKKMIGHYIPQCDEKGNYQPQQCHGSTGHCWCVNAMGEKISGTNTPPGQTRATCERHELPKCLKERQVALGGDEKVLGRFVPQCDEKGNYEPQQFHGSTGYSWCVNAIGEEIAGTKTPPGKIPATCQKHDLVTTCHYAVAMVKKSSAFQFNQLKGKRSCHSGVSKTDGWKALVTVLVEKKLLSWDGPAKESIQRAMSKFFSVSCIPGATQTNLCKQCKGEEGKNCKNSHDEPYYGNYGAFRCLKEDMGDVAFLRSTALSDEHSEVYELLCPDNTRKPLNKYKECNLGTVPAGTVVTRKISDKTEDINNFLMEAQKRQCKLFSSAHGKDLMFDDSTLQLALLSSEVDAFLYLGVKLFHAMKALTGDAHLPSKNKVRWCTINKLEKMKCDDWSAVSGGAIACTEASCPKGCVKQILKGEADAVKLEVQYMYEALMCGLLPAVEEYHNKDDFGPCKTPGSPYTDFGTLRAVALVKKSNKDINWNNIKGKKSCHTGVGDIAGWVIPVSLIRRQNDNSDIDSFFGESCAPGSDTKSNLCKLCIGDPKNSAANTKCSLSDKEAYYGNQGAFRCLVEKGDVAFVPHTVVFENTDGKNPAVWAKNLKSEDFELLCLDGSRAPVSNYKSCKLSGIPPPAIVTREESISDVVRIVANQQSLYGRKGFEKDMFQLFSSNKGNNLLFNDNTQCLITCDRQPKDIMEDYFGKPYYTTVYGASRSAMSSELISACTIKHC
With B6, the Kd was 1510 ± 346 nM and the “ΔΔG” value is 3.15 kcal/mol.
